The assay has as its target α-Methylacyl-CoA racemase from Mycobacterium tuberculosis, wild-type (M. tuberculosis) (UniProt O06543). The experiment in a line: SEC.

As a reminder, the stoichiometry N is the number of molecules, sites or subunits per partner or assembly. The substance “α-Methylacyl-CoA racemase from Mycobacterium tuberculosis, wild-type (from UniProt O06543 1-360) (enzyme)” yielded a stoichiometry N of 2.

(Values after publication PMC10967716.)
